In the supplement of paper PMC10567573:

B1: HSP90AB1 (parent)
chain: QVANSAFVERVRKRGFEVVYMTEP
B2: C1orf55 (parent)
chain: FTSPDYQQQCHEMAERLEDSVLKG

Variants of: B1
Assay: protein stability index of a GFP-peptide fusion (GPS, HEK-293T) (PSI 1-6); higher = more stable
Details: c terminus: a fixed tail appended
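Also: lentivirally expressed fusions sorted by FACS into six bins by GFP to DsRed ratio, PSI derived from sequencing read proportions per bin multiplied by bin number.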

Variant	protein stability index
QVANSAFVERVRKRGFEVVYMYEP	1.95
QVANSAFVERVRKRGFEVVYMIEP	1.81
QVANSAFVERVRKRGFEVVYMWEP	1.55
QVANSAFVERVRKRGFEVVYMGEP	2
QVANSAFVERVRKRGFEVVYMFEP	1.68
QVANSAFVERVRKRGFEVVYMSEP	2.7
QVANSAFVERVRKRGFEVVYMEEP	2.56
QVANSAFVERVRKRGFEVVYMCEP	2.12
QVANSAFVERVRKRGFEVVYMNEP	2.51
QVANSAFVERVRKRGFEVVYMAEP	2.89
QVANSAFVERVRKRGFEVVYMQEP	2.54
QVANSAFVERVRKRGFEVVYMVEP	1.63
QVANSAFVERVRKRGFEVVYMLEP	1.7
QVANSAFVERVRKRGFEVVYMPEP	2.38
QVANSAFVERVRKRGFEVVYMMEP	1.91
QVANSAFVERVRKRGFEVVYMHEP	1.91
QVANSAFVERVRKRGFEVVYETEP	3.06
QVANSAFVERVRKRGFEVVYITEP	1.98
QVANSAFVERVRKRGFEVVYPTEP	2.8
QVANSAFVERVRKRGFEVVYYTEP	2.04
QVANSAFVERVRKRGFEVVYRTEP	3.33
QVANSAFVERVRKRGFEVVYCTEP	2.41

Variant	protein stability index
QVANSAFVERVRKRGFEVVYLTEP	2.6
QVANSAFVERVRKRGFEVVYHTEP	3.37
QVANSAFVERVRKRGFEVVYNTEP	2.77
QVANSAFVERVRKRGFEVVYGTEP	2.65
QVANSAFVERVRKRGFEVVYQTEP	3.1
QVANSAFVERVRKRGFEVVYDTEP	2.96
QVANSAFVERVRKRGFEVVYFTEP	2.06
QVANSAFVERVRKRGFEVVYWTEP	3.09
QVANSAFVERVRKRGFEVVYATEP	2.11
QVANSAFVERVRKRGFEVVYTTEP	3.05
QVANSAFVERVRKRGFEVYYMTEP	1.98
QVANSAFVERVRKRGFEVSYMTEP	2.68
QVANSAFVERVRKRGFEVRYMTEP	2.57
QVANSAFVERVRKRGFEVWYMTEP	1.42
QVANSAFVERVRKRGFEVTYMTEP	2.93
QVANSAFVERVRKRGFEVVYMTEH	2.1
QVANSAFVERVRKRGFEVVYMTEE	3.13
QVANSAFVERVRKRGFEVVYMTEI	2.03
QVANSAFVERVRKRGFEVVYMTEW	2.09
QVANSAFVERVRKRGFEVVYMTER	2
QVANSAFVERVRKRGFEVVYMTET	2.48
QVANSAFVERVRKRGFEVVYMTEG	2.42

Variant	protein stability index
QVANSAFVERVRKRGFEVVYMTEM	2.14
QVANSAFVERVRKRGFEVVYMTEC	2.2
QVANSAFVERVRKRGFEVVYMTEN	2.32
QVANSAFVERVRKRGFEVVYMTEF	1.63
QVANSAFVERVRKRGFEVVYMTEK	2.44
QVANSAFVERVRKRGFEVVYMTEL	1.21
QVANSAFVERVRKRGFEVVYMTED	3.18
QVANSAFVERVRKRGFEVVYMTEY	1.89
QVANSAFVERVRKRGFEVVYMTEQ	2.52
QVANSAFVERVRKRGFEVVRMTEP	3.23
QVANSAFVERVRKRGFEVVKMTEP	2.6
QVANSAFVERVRKRGFEVVIMTEP	1.78
QVANSAFVERVRKRGFEVVPMTEP	2.81
QVANSAFVERVRKRGFEVVGMTEP	3.52
QVANSAFVERVRKRGFEVVEMTEP	3.37
QVANSAFVERVRKRGFEVVQMTEP	3.41
QVANSAFVERVRKRGFEVVLMTEP	2.22
QVANSAFVERVRKRGFEVVAMTEP	2.62
QVANSAFVERVRKRGFEVVWMTEP	1.96
QVANSAFVERVRKRGFEVVNMTEP	3.62
QVANSAFVERVRKRGFEVVCMTEP	2.99
QVANSAFVERVRKRGFEVVDMTEP	3.06

Variant	protein stability index
QVANSAFVERVRKRGFEVVTMTEP	2.69
QVANSAFVERVRKRGFEVVVMTEP	3.05
QVANSAFVERVRKRGFEVVHMTEP	3.07
QVANSAFVERVRKRGFEVVYMTDP	2.81
QVANSAFVERVRKRGFEVVYMTIP	1.69
QVANSAFVERVRKRGFEVVYMTAP	2.88
QVANSAFVERVRKRGFEVVYMTKP	2.13
QVANSAFVERVRKRGFEVVYMTHP	1.95
QVANSAFVERVRKRGFEVVYMTMP	2.56
QVANSAFVERVRKRGFEVVYMTGP	1.78
QVANSAFVERVRKRGFEVVYMTVP	2.38
QVANSAFVERVRKRGFEVVYMTYP	1.66
QVANSAFVERVRKRGFEVVYMTLP	1.16
QVANSAFVERVRKRGFEVVYMTFP	1.62
QVANSAFVERVRKRGFEVVYMTCP	2.67
QVANSAFVERVRKRGFEVVYMTWP	2.14
QVANSAFVERVRKRGFEVVYMTQP	1.9
QVANSAFVERVRKRGFEVVYMTPP	2.19
QVANSAFVERVRKRGFEVVYMTRP	2.47
QVANSAFVERVRKRGFEVVYMTTP	1.89
QVANSAFVERVRKRGFEVVYMTSP	2.54
QVANSAFVERVRKRGFEVVYMTNP	1.83

Variants of: B2
Assay: as above
Details: c terminus: a fixed tail appended

Variant	protein stability index
FTSPDFQQQCHEMAERLEDSVLKG	1.84
FTSPDEQQQCHEMAERLEDSVLKG	5.43
FTSPDCQQQCHEMAERLEDSVLKG	4.51
FTSPDDQQQCHEMAERLEDSVLKG	4.95
FTSPDAQQQCHEMAERLEDSVLKG	4.56
FTSCDYQQQCHEMAERLEDSVLKG	2.87
